From patent US20120277286A1, “COMPOSITIONS AND METHODS FOR THE TREATMENT OR PREVENTION OF MITOCHONDRIAL DISEASES” (The Government of the USA, as represented by the Secretary, …, priority 2009, published 2012)

Key:
rat cortical neurons = assay: Endogenous Parkin in heavy membrane pellet, Western blot; type: cell-based; conditions: CCCP 5 hours
Protocol: HeLa cells stably expressing YFP-Parkin using the Flp-In system (Invitrogen) were creating according to the manufacturer's instructions and maintained in 300 μg/ml hygromycin (Sigma-Aldrich). Rat cortical neurons were isolated on embryonic day 18 and grown in neurobasal media supplemented with B-27, L-glutamine, and penicillin/streptomycin. All cell culture materials were obtained from Invitrogen and all chemicals were obtained from Sigma-Aldrich. Chemicals were prepared from DMSO stock solutions, except paraquat, N-acetyl-cysteine, and 3-methyladenine, which were added fresh to media. Mfn1−/−, Mfn2−/− and Mfn1−/−, Mfn2−/− double knockout MEFs were generously donated by D. C. […]
Image contrast and brightness were adjusted in Photoshop (Adobe). Colocalization was assessed with line scans using MetaMorph (MDS Analytical Technologies). For analysis of mitochondrial membrane potential in cells, mitochondrial voxels in each image (the cytochrome c channel threshold was ≧400 au) were segregated into Parkin-positive (the YFP-Parkin channel threshold was ≧1,100 au) or Parkin-negative subsets, and MitoTracker intensity for each voxel was measured using Volocity software (Improvision). For each cell, the mean MitoTracker intensity per voxel was calculated for the Parkin-positive and Parkin-negative subsets. […]

PINK1 = PINK1 accumulation by fractionation and immunoblotting; type: cell-based; conditions: HeLa cells, mitochondrial membrane fraction; 10 μM CCCP or 1 μM valinomycin
Procedure, shortened: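 HeLa cells fractionated with a mitochondria isolation kit for PINK1, with membrane fractions carbonate-extracted in cold 0.1M Na2CO3 to pellet integral membrane proteins; Parkin fractionation by a separate published protocol. PINK1 and Parkin detected in fractions by immunoblot with monoclonal and polyclonal antibodies.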

HeLa cells [1] = assay: Parkin in mitochondria-rich membrane fraction, immunoblot; type: cell-based; conditions: HeLa, CCCP 1 hr, Western blotting
From the text: (§1) For PINK1 experiments, cells were fractionated using the Mitochondria Isolation Kit (Pierce), according to manufacturer's specifications with slight modifications. To isolate integral membrane proteins, membrane fractions obtained as above were carbonate extracted with 0.1M Na2CO3 fresh cold buffer and membranes were pelleted, as described in the supplemental methods. For Parkin experiments, cells were fractionated as described previously, with minor modifications described in the supplemental methods (Narendra (2008) J Cell Biol 183: 795-803). The following primary antibodies were used: anti-Parkin (PRK8) monoclonal (Santa Cruz), anti-Tom20 polyclonal (Santa Cruz), anti-cytochrome c monoclonal (BD Biosciences), anti-PINK1 polyclonal (Novus Biologicals), anti-VDAC monoclonal (Calbiochem), anti-GAPDH polyclonal (Sigma-Aldrich), anti-Tubulin monoclonal (Sigma-Aldrich), anti-V5 monoclonal (Invitrogen), anti-GFP polyclonal (Invitrogen).
as §1, with “with slight modifications described in the supplemental methods. To isolate” for “with slight modifications. To isolate”, “minor modifications detailed in the” for “minor modifications described in the”, “supplemental methods (Narendra (2008) J Cell Biol 183: 795-803). The protease protection assay was performed as described previously (Chen (2005) J Biol Chem 280: 26185-26192). Cells were fixed and immunostained as described previously (Narendra (2008)” for “supplemental methods (Narendra (2008)”, “anti-GFP polyclonal (Invitrogen), anti-TIM23 monoclonal (BD Biosciences), and anti-Hsp60 monoclonal (Stressgen).” for “anti-GFP polyclonal (Invitrogen).”

HeLa cells [2] = assay: Survival in glucose or galactose media after CCCP; type: cell-based
From the text: To further confirm that cells had lost their mitochondria, their growth in glucose media or galactose media, which lacked glucose, was examined. […] In contrast, the majority of control cells, which had been treated with CCCP but lacked Parkin, retained their mitochondria and could survive in both glucose and galactose media for at least 4 days (FIG. 4H).
Cultured cells seeded in borosilicate chamber slides (Thermo Fisher Scientific) were transfected or cotransfected with YFP-Parkin, ECFP-Parkin, mCherry-Parkin, DsRed-Mito (Clontech Laboratories, Inc.), pcDNA3.1 (Invitrogen), vMIA, and/or Drp1K38A constructs using Fugene 6 (Roche). Parkin-myc was a gift from M. Cookson (National Institutes of Health, Bethesda, Md.). Cells were fixed 12-24 hours after transfection with 4% paraformaldehyde in PBS. Cells were stained with following primary antibodies: mouse monoclonal cytochrome c (BD), rabbit polyclonal Tom20 (Santa Cruz Biotechnology, Inc.), mouse monoclonal Parkin PRK8 (Santa Cruz Biotechnology, Inc.), rabbit polyclonal PMP70 (Invitrogen), and/or mouse monoclonal TRAP1 (Abcam); and with the following secondary antibodies: mouse and/or rabbit Alexa 488, 594, and 633 (Invitrogen). For assessment of mitochondrial membrane potential, cells were pulsed with 50 nM Mito-Tracker red (Invitrogen) for 15 min, washed, and incubated for an additional 10 minutes before fixation or imaging. […]

COXICA65 cybrid cells = assay: PCR-RFLP of wild-type and mutant mtDNA; type: cell-based, human
From the text: The forward primer, [NT], and the reversed primer, [NT], were used for COXICA65 cybrid.

Molecule | endogenous Parkin level in the membrane pellet (rat cortical neurons) | endogenous full length PINK1 (˜63 kDa) level after depolarization (PINK1) | translocation of YFP-Parkin variant to mitochondria-rich membrane fraction (HeLa cells [1]) | cells without detectable mitochondria able to survive (HeLa cells [2]; 4 days in galactose media after 10 μM CCCP 72 hours) | cells without detectable mitochondria able to survive (HeLa cells [2]; 4 days in glucose media after 10 μM CCCP 72 hours) | wild-type and mutant mtDNA bands (COXICA65 cybrid cells; COXICA65 cybrid, YFP-Parkin for 45 days) | mutant mtDNA band at 63 bp (COXICA65 cybrid cells; COXICA65 cybrid, YFP-Parkin for sixty days) | wild-type mtDNA percentage after reversion (COXICA65 cybrid cells; cells enriched to 73.7% wild-type, cultured without FACS selection) | wild-type relative to mutant mtDNA (COXICA65 cybrid cells; cells enriched to >90% wild-type, further 67 days without FACS selection) | percent of wild-type mtDNA (32P labeling) (COXICA65 cybrid cells; first experiment, 180 days) | percent of wild-type mtDNA (32P labeling) (COXICA65 cybrid cells; first experiment, after 200 days) | percent of wild-type mtDNA (32P labeling) (COXICA65 cybrid cells; second experiment, after 200 days)
N#CC(C#N)=NNc1cccc(Cl)c1 [CCCP, carbonyl cyanide m-chlorophenylhydrazone] | increased levels in the membrane pellet | large increase |  |  |  |  |  |  |  |  |  | 
YFP-Parkin: YFP-tagged Parkin E3 ligase expressed from a transfected vector (protein, UniProt O60260 1-465, looked up, YFP fusion, YFP-tagged Parkin E3 ligase expressed from a transfected vector) E3 ubiquitin-protein ligase …: MIVFVRFNSSHGFPVEVDSDTSIFQLKEVVAKRQGVPADQLRVIFAGKELRNDWTVQNCDLDQQSIVHIVQRPWRKGQEMNATGGDDPRNAAGGCEREPQSLTRVDLSSSVLPGDSVGLAVILHTDSRKDSPPAGSPAGRSIYNSFYVYCKGPCQRVQPGKLRVQCSTCRQATLTLTQGPSCWDDVLIPNRMSGECQSPHCPGTSAEFFFKCGAHPTSDKETSVALHLIATNSRNITCITCTDVRSPVLVFQCNSRHVICLDCFHLYCVTRLNDRQFVHDPQLGYSLPCVAGCPNSLIKELHHFRILGEEQYNRYQQYGAEECVLQMGGVLCPRPGCGAGLLPEPDQRKVTCEGGNGLGCGFAFCRECKEAYHEGECSAVFEASGTTTQAYRVDERAAEQARWEAASKETIKKTTKPCPRCHVPVEKNGGCMHMKCPQPQCRLEWCWNCGCEWNRVCMGDHWFDV |  |  | increase | 0% | 72.8% | increase in wild-type DNA and a decrease in mutant DNA | only a very minor band of mutant mtDNA | ~20% | more than 50% | 40.3% | 73.7% | 90.3%
